Binding result and EC50 data for five molecules are collected here from article PMC10865538 (BMC Infectious Diseases, 2024).

The target of the test is SARS-CoV-2 S protein receptor-binding domain (R319-F541) (SARS-CoV-2, UniProt P0DTC2). Nature of the test: ELISA. As to conditions: both partners purified. (In an ELISA, binding on a coated surface is turned into a signal by an enzyme label.)

B1: sdAb12 (VHH)
VHH: EVQLVESGGGLVQPGGSLRLSCAASGNTFPARTMSWVRQAPGKGLELVASIGRGEITYYADSVKGRFTISRDNSKNTLYLQMNSLRAEDTAVYYCAAPAHGSWMSRRPHIYWGQGTLVTVSS
As for B1, the binding result was “binds”.

B2: sdAb38 (VHH)
VHH: EVQLVESGGGLVQPGGSLRLSCAASGNTSTRHPMSWVRQAPGKGLELVASIGRGEITYYADSVKGRFTISRDNSKNTLYLQMNSLRAEDTAVYYCAVCLRSVFVNCHNFAYWGQGTLVTVSS
Turning to B2, the binding result is “binds”.

B3: sdAb42 (VHH)
VHH: EVQLVESGGGLVQPGGSLRLSCAASGNTSTRHPMSWVRQAPGKGLELVASIGRGEITYYADSVKGRFTISRDNSKNTLYLQMNSLRAEDTAVYYCAVDAVFGGRHSHWGQGTLVTVSS
As for B3, the binding result was “binds”.

B4: sdAb10 (VHH)
VHH: EVQLVESGGGLVQPGGSLRLSCAASGNTFPARTMSWVRQAPGKGLELVASIGPGRSTIYADSVKGRFTISRDNSKNTLYLQMNSLRAEDTAVYYCAVAYTSGLALRGSFSYWGQGTLVTVSS
On to B4, for which the binding result is “binds”.

B5: sdAb39 (VHH)
VHH: EVQLVESGGGLVQPGGSLRLSCAASGNTSTRHPMSWVRQAPGKGLELVASIGRGEITYYADSVKGRFTISRDNSKNTLYLQMNSLRAEDTAVYYCAAFVDFLSRHNSRRPYPHGYWGQGTLVTVSS
One may read the EC50 as the concentration needed to bring the measured effect to its halfway point. The low end stands for greater potency, the high end for weaker potency. B5 displayed a concentration for a half-maximal effect (EC50) of 4 nM.
